# According to publication PMC4456606, “A conserved histidine modulates HSPB5 structure to trigger chaperone activity in response to stress-related acidosis” (eLife, 2015):
# Residue numbers refer to the chain shown, from its start. Names may count otherwise.
# B1: HSPB5-ACD (alpha-crystallin domain of HSPB5, residues 64-152) (domain or fragment, human, UniProt P02511 64-152, looked up)
# chain: GLSEMRLEKDRFSVNLDVKHFSPEELKVKVLGDVIEVHGKHEERQDEHGFISREFHRKYRIPADVDPLTITSSLSSDGVLTVNGPRKQV
# notes: HSPB5 (alphaB-crystallin), human, alpha-crystallin domain, residues 64-152; 15N- or 13C,15N-labelled for the NMR experiments; also called WT-ACD; WT-HSPB5-ACD; source: expressed and purified as described previously (Jehle et al., 2009)
# B2: H104Q-ACD (HSPB5-ACD with His-104 replaced by Gln) (domain or fragment, human, UniProt P02511 64-152, looked up)
# chain: B1 chain with H41Q
# notes: HSPB5 (alphaB-crystallin), human, alpha-crystallin domain, residues 64-152, with H104Q; source: growth and purification similar to that of wild-type proteins (Jehle et al., 2009)
# B3: H104K-ACD (HSPB5-ACD with His-104 replaced by Lys) (domain or fragment, human, UniProt P02511 64-152, looked up)
# chain: B1 chain with H41K
# notes: HSPB5 (alphaB-crystallin), human, alpha-crystallin domain, residues 64-152, with H104K; source: growth and purification similar to that of wild-type proteins (Jehle et al., 2009)
# B4: WT-HSPB5 (full-length HSPB5, alphaB-crystallin) (natural protein, human, UniProt P02511 1-175, looked up)
# chain: MDIAIHHPWIRRPFFPFHSPSRLFDQFFGEHLLESDLFPTSTSLSPFYLRPPSFLRAPSWFDTGLSEMRLEKDRFSVNLDVKHFSPEELKVKVLGDVIEVHGKHEERQDEHGFISREFHRKYRIPADVDPLTITSSLSSDGVLTVNGPRKQVSGPERTIPITREEKPAVTAAPKK
# notes: HSPB5 (alphaB-crystallin), human, full length; Forms polydisperse oligomers; also called αB-crystallin; source: expressed and purified as described previously (Jehle et al., 2009)
# B5: H104Q-HSPB5 (full-length HSPB5 with His-104 replaced by Gln) (natural protein, human, UniProt P02511 1-175, looked up)
# chain: B4 chain with H104Q
# notes: HSPB5 (alphaB-crystallin), human, full length, with H104Q; source: growth and purification similar to that of wild-type proteins (Jehle et al., 2009)
# B6: H104K-HSPB5 (full-length HSPB5 with His-104 replaced by Lys) (natural protein, human, UniProt P02511 1-175, looked up)
# chain: B4 chain with H104K
# notes: HSPB5 (alphaB-crystallin), human, full length, with H104K; source: growth and purification similar to that of wild-type proteins (Jehle et al., 2009)
# B7: bovine αLactalbumin (natural protein, UniProt P00711 20-142, looked up)
# chain: EQLTKCEVFRELKDLKGYGGVSLPEWVCTTFHTSGYDTQAIVQNNDSTEYGLFQINNKIWCKDDQNPHSSNICNISCDKFLDDDLTDDIMCVKKILDKVGINYWLAHKALCSEKLDQWLCEKL
# notes: alpha-lactalbumin, bovine, Sigma L6010; Model client protein; source: bought: Sigma (L6010)
# Experiments:
# [1] = biological target: the molecule itself; experiment: ITC; dilution ITC, 1 mM WT-ACD, dimer to monomers; 25°C, pH 7.5, 50 mM sodium phosphate, 100 mM NaCl
# [2] = biological target: the molecule itself; experiment: 15N-CPMG relaxation dispersion NMR; 700 and 200 μM ACD, pH 7.5, 37°C; global fit of dimer interface residues; rate constants worked out with the KD of 36 μM from ITC; dimer to monomers
# [3] = biological target: the molecule itself; experiment: ITC; dilution ITC, 1 mM WT-ACD, dimer to monomers; 37°C, pH 7.5, 50 mM sodium phosphate, 100 mM NaCl
# [4] = biological target: the molecule itself; experiment: ITC; dilution ITC, 1 mM WT-ACD, dimer to monomers; 25°C, pH 6.5, 50 mM sodium phosphate, 100 mM NaCl
# [5] = biological target: the molecule itself; experiment: 1H-15N HSQC NMR; 200 μM ACD, pH 7.5, 22°C, NMR buffer; populations of dimer and monomer peaks; dimer to monomers
# [6] = biological target: the molecule itself; experiment: SEC-MALS; 40 μM subunits, equilibrated at 37°C for at least 60 min; 50 mM sodium phosphate pH 6.5, 100 mM NaCl, 1 mM DTT; size of the oligomers
# [7] = biological target: the molecule itself; experiment: SEC-MALS; 40 μM subunits, pre-incubated at 37°C for 30 min; 50 mM sodium phosphate pH 7.5, 100 mM NaCl, 1 mM DTT; size of the oligomers
# [8] = biological target: B4; experiment: SEC-MALS; WT- and H104K-HSPB5 incubated together at ratios 1:0, 2:1, 1:1, 1:2, 0:1; mixed oligomers; settings: both partners purified
# [9] = biological target: B5; experiment: SEC-MALS; HSPB5 (40 μM subunits) pre-incubated with αLac (240 μM in the methods, 120 μM in the legend) at 37°C, pH 7.5, 10 min, then 50 mM DTT for 50 min, filtered and injected; SDS-PAGE of peak fractions; settings: both partners purified
# [10] = biological target: B6; experiment: as above; settings: both partners purified
binder,measurement,setting,value
B1,Kd,[1],2 ± 2 µM
same,dH,[1],8.77 ± 3.96 kcal/mol
same,koff,[2],400 s⁻¹
same,kon,[2],1.1e+07 M⁻¹ s⁻¹
same,Kd,[3],36 ± 2 µM
same,dH,[3],9.33 ± 0.527 kcal/mol
same,Kd,[4],30 ± 16 µM
same,dH,[4],3.24 ± 0.432 kcal/mol
B2,Kd,[5],100 to 500 µM
B3,Kd,[5],> 1000 µM
B4,stoichiometry N,[6],~36 subunits per oligomer
same,stoichiometry N,[7],~24 subunits
B5,binding result,[7],binds
B6,binding result,[8],binds
same,stoichiometry N,[7],~41 subunits
B7,binding result,[9],binds
same,binding result,[10],binds
